Sequences and labels used below:
B1: library; numbered along this chain (parent)
chain: MEVVDPQQLGMFTEGELMSVGMDTFIHRIDSTEVIYQPRRKRAKLIGKYLMGDLLGEGSYGKVKEVLDSETLCRRAVKILKKKKLRRIPNGEANVKKEIQLLRRLRHKNVIQLVDVLYNEEKQKMYMVMEYCVCGMQEMLDSVPEKRFPVCQAHGYFCQLIDGLEYLHSQGIVHKDIKPGNLLLTTGGTLKISDLGVAEALHPFAADDTCRTSQGSPAFQPPEIANGLDTFSGFKVDIWSAGVTLYNITTGLYPFEGDNIYKLFENIGKGSYAIPGDCGPPLSDLLKGMLEYEPAKRFSIRQIRQHSWFRKKHPPAEAPVPIPPSPDTKDRWRSMTVVPYLEDLHGADEDEDLFDIEDDIIYTQDFTVPGQVPEEEASHNGQRRGLPKAVCMNGTEAAQLSTKSRAEGRAPNPARKACSASSKIRRLSACKQQ

Here are results for 14 variants from the supplement of paper PMC12338614.

± gives the uncertainty stated by the source.

The variants in this data set derive from B1. The experiment in a line: STK11 functional score (HeLa growth suppression), rescaled enrichment; synonymous median = 1, nonsense median = 0 (normalised score). The note with it: with HeLa; variant type: missense. On the procedure: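 Deep mutational scan (TileSeq/POPCode codon randomisation) of full-length codon-optimised STK11 cDNA integrated at a Bxb1 landing pad (AAVS1) in HeLa cells. Restoring functional STK11 suppresses HeLa proliferation. Variant frequencies were measured by NGS before and after about two weeks of growth. The error-corrected enrichment log-ratio was rescaled so that synonymous median = 1 and nonsense median = 0, scores above 1 were compressed, and codon-level and three biological replicate scores were combined; error is the bootstrapped standard error. Scale: synonymous median = 1, nonsense median = 0; below 0.5 = damaging.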
In the case of MEVVDPQQLGMFTEGELMSVGMDTFIHRIDSTEVIYQPRRKRAKLIGKYLMGDLLGEGSYGKVKEVLDSETLCSRAVKILKKKKLRRIPNGEANVKKEIQLLRRLRHKNVIQLVDVLYNEEKQKMYMVMEYCVCGMQEMLDSVPEKRFPVCQAHGYFCQLIDGLEYLHSQGIVHKDIKPGNLLLTTGGTLKISDLGVAEALHPFAADDTCRTSQGSPAFQPPEIANGLDTFSGFKVDIWSAGVTLYNITTGLYPFEGDNIYKLFENIGKGSYAIPGDCGPPLSDLLKGMLEYEPAKRFSIRQIRQHSWFRKKHPPAEAPVPIPPSPDTKDRWRSMTVVPYLEDLHGADEDEDLFDIEDDIIYTQDFTVPGQVPEEEASHNGQRRGLPKAVCMNGTEAAQLSTKSRAEGRAPNPARKACSASSKIRRLSACKQQ [R74S], the STK11 functional score turned out to be 0.519 ± 0.21.

Turning to MEVVDPQQLGMFTEGELMSVGMDTFIHRIDSTEVIYQPRRKRAKLIGKYLMGDLLGEGSYGKVKEVLDSETLCVRAVKILKKKKLRRIPNGEANVKKEIQLLRRLRHKNVIQLVDVLYNEEKQKMYMVMEYCVCGMQEMLDSVPEKRFPVCQAHGYFCQLIDGLEYLHSQGIVHKDIKPGNLLLTTGGTLKISDLGVAEALHPFAADDTCRTSQGSPAFQPPEIANGLDTFSGFKVDIWSAGVTLYNITTGLYPFEGDNIYKLFENIGKGSYAIPGDCGPPLSDLLKGMLEYEPAKRFSIRQIRQHSWFRKKHPPAEAPVPIPPSPDTKDRWRSMTVVPYLEDLHGADEDEDLFDIEDDIIYTQDFTVPGQVPEEEASHNGQRRGLPKAVCMNGTEAAQLSTKSRAEGRAPNPARKACSASSKIRRLSACKQQ [R74V], the STK11 functional score came out at 0.653 ± 0.33.

As to MEVVDPQQLGMFTEGELMSVGMDTFIHRIDSTEVIYQPRRKRAKLIGKYLMGDLLGEGSYGKVKEVLDSETLCLRAVKILKKKKLRRIPNGEANVKKEIQLLRRLRHKNVIQLVDVLYNEEKQKMYMVMEYCVCGMQEMLDSVPEKRFPVCQAHGYFCQLIDGLEYLHSQGIVHKDIKPGNLLLTTGGTLKISDLGVAEALHPFAADDTCRTSQGSPAFQPPEIANGLDTFSGFKVDIWSAGVTLYNITTGLYPFEGDNIYKLFENIGKGSYAIPGDCGPPLSDLLKGMLEYEPAKRFSIRQIRQHSWFRKKHPPAEAPVPIPPSPDTKDRWRSMTVVPYLEDLHGADEDEDLFDIEDDIIYTQDFTVPGQVPEEEASHNGQRRGLPKAVCMNGTEAAQLSTKSRAEGRAPNPARKACSASSKIRRLSACKQQ [R74L], the STK11 functional score worked out at 1.42 ± 0.094.

Regarding MEVVDPQQLGMFTEGELMSVGMDTFIHRIDSTEVIYQPRRKRAKLIGKYLMGDLLGEGSYGKVKEVLDSETLCPRAVKILKKKKLRRIPNGEANVKKEIQLLRRLRHKNVIQLVDVLYNEEKQKMYMVMEYCVCGMQEMLDSVPEKRFPVCQAHGYFCQLIDGLEYLHSQGIVHKDIKPGNLLLTTGGTLKISDLGVAEALHPFAADDTCRTSQGSPAFQPPEIANGLDTFSGFKVDIWSAGVTLYNITTGLYPFEGDNIYKLFENIGKGSYAIPGDCGPPLSDLLKGMLEYEPAKRFSIRQIRQHSWFRKKHPPAEAPVPIPPSPDTKDRWRSMTVVPYLEDLHGADEDEDLFDIEDDIIYTQDFTVPGQVPEEEASHNGQRRGLPKAVCMNGTEAAQLSTKSRAEGRAPNPARKACSASSKIRRLSACKQQ [R74P], the STK11 functional score was determined as 1.27 ± 0.19.

Turning to MEVVDPQQLGMFTEGELMSVGMDTFIHRIDSTEVIYQPRRKRAKLIGKYLMGDLLGEGSYGKVKEVLDSETLCTRAVKILKKKKLRRIPNGEANVKKEIQLLRRLRHKNVIQLVDVLYNEEKQKMYMVMEYCVCGMQEMLDSVPEKRFPVCQAHGYFCQLIDGLEYLHSQGIVHKDIKPGNLLLTTGGTLKISDLGVAEALHPFAADDTCRTSQGSPAFQPPEIANGLDTFSGFKVDIWSAGVTLYNITTGLYPFEGDNIYKLFENIGKGSYAIPGDCGPPLSDLLKGMLEYEPAKRFSIRQIRQHSWFRKKHPPAEAPVPIPPSPDTKDRWRSMTVVPYLEDLHGADEDEDLFDIEDDIIYTQDFTVPGQVPEEEASHNGQRRGLPKAVCMNGTEAAQLSTKSRAEGRAPNPARKACSASSKIRRLSACKQQ [R74T], the STK11 functional score is -0.214 ± 0.22.

MEVVDPQQLGMFTEGELMSVGMDTFIHRIDSTEVIYQPRRKRAKLIGKYLMGDLLGEGSYGKVKEVLDSETLCRIAVKILKKKKLRRIPNGEANVKKEIQLLRRLRHKNVIQLVDVLYNEEKQKMYMVMEYCVCGMQEMLDSVPEKRFPVCQAHGYFCQLIDGLEYLHSQGIVHKDIKPGNLLLTTGGTLKISDLGVAEALHPFAADDTCRTSQGSPAFQPPEIANGLDTFSGFKVDIWSAGVTLYNITTGLYPFEGDNIYKLFENIGKGSYAIPGDCGPPLSDLLKGMLEYEPAKRFSIRQIRQHSWFRKKHPPAEAPVPIPPSPDTKDRWRSMTVVPYLEDLHGADEDEDLFDIEDDIIYTQDFTVPGQVPEEEASHNGQRRGLPKAVCMNGTEAAQLSTKSRAEGRAPNPARKACSASSKIRRLSACKQQ [R75I]: the STK11 functional score is 1.18 ± 0.099.

Consider MEVVDPQQLGMFTEGELMSVGMDTFIHRIDSTEVIYQPRRKRAKLIGKYLMGDLLGEGSYGKVKEVLDSETLCRAAVKILKKKKLRRIPNGEANVKKEIQLLRRLRHKNVIQLVDVLYNEEKQKMYMVMEYCVCGMQEMLDSVPEKRFPVCQAHGYFCQLIDGLEYLHSQGIVHKDIKPGNLLLTTGGTLKISDLGVAEALHPFAADDTCRTSQGSPAFQPPEIANGLDTFSGFKVDIWSAGVTLYNITTGLYPFEGDNIYKLFENIGKGSYAIPGDCGPPLSDLLKGMLEYEPAKRFSIRQIRQHSWFRKKHPPAEAPVPIPPSPDTKDRWRSMTVVPYLEDLHGADEDEDLFDIEDDIIYTQDFTVPGQVPEEEASHNGQRRGLPKAVCMNGTEAAQLSTKSRAEGRAPNPARKACSASSKIRRLSACKQQ [R75A], for which the STK11 functional score is 1.68 ± 0.19.

With MEVVDPQQLGMFTEGELMSVGMDTFIHRIDSTEVIYQPRRKRAKLIGKYLMGDLLGEGSYGKVKEVLDSETLCRMAVKILKKKKLRRIPNGEANVKKEIQLLRRLRHKNVIQLVDVLYNEEKQKMYMVMEYCVCGMQEMLDSVPEKRFPVCQAHGYFCQLIDGLEYLHSQGIVHKDIKPGNLLLTTGGTLKISDLGVAEALHPFAADDTCRTSQGSPAFQPPEIANGLDTFSGFKVDIWSAGVTLYNITTGLYPFEGDNIYKLFENIGKGSYAIPGDCGPPLSDLLKGMLEYEPAKRFSIRQIRQHSWFRKKHPPAEAPVPIPPSPDTKDRWRSMTVVPYLEDLHGADEDEDLFDIEDDIIYTQDFTVPGQVPEEEASHNGQRRGLPKAVCMNGTEAAQLSTKSRAEGRAPNPARKACSASSKIRRLSACKQQ [R75M], the STK11 functional score is 0.00187 ± 0.29.

On to MEVVDPQQLGMFTEGELMSVGMDTFIHRIDSTEVIYQPRRKRAKLIGKYLMGDLLGEGSYGKVKEVLDSETLCRCAVKILKKKKLRRIPNGEANVKKEIQLLRRLRHKNVIQLVDVLYNEEKQKMYMVMEYCVCGMQEMLDSVPEKRFPVCQAHGYFCQLIDGLEYLHSQGIVHKDIKPGNLLLTTGGTLKISDLGVAEALHPFAADDTCRTSQGSPAFQPPEIANGLDTFSGFKVDIWSAGVTLYNITTGLYPFEGDNIYKLFENIGKGSYAIPGDCGPPLSDLLKGMLEYEPAKRFSIRQIRQHSWFRKKHPPAEAPVPIPPSPDTKDRWRSMTVVPYLEDLHGADEDEDLFDIEDDIIYTQDFTVPGQVPEEEASHNGQRRGLPKAVCMNGTEAAQLSTKSRAEGRAPNPARKACSASSKIRRLSACKQQ [R75C], for which the STK11 functional score was 1.55 ± 0.091.

With MEVVDPQQLGMFTEGELMSVGMDTFIHRIDSTEVIYQPRRKRAKLIGKYLMGDLLGEGSYGKVKEVLDSETLCRGAVKILKKKKLRRIPNGEANVKKEIQLLRRLRHKNVIQLVDVLYNEEKQKMYMVMEYCVCGMQEMLDSVPEKRFPVCQAHGYFCQLIDGLEYLHSQGIVHKDIKPGNLLLTTGGTLKISDLGVAEALHPFAADDTCRTSQGSPAFQPPEIANGLDTFSGFKVDIWSAGVTLYNITTGLYPFEGDNIYKLFENIGKGSYAIPGDCGPPLSDLLKGMLEYEPAKRFSIRQIRQHSWFRKKHPPAEAPVPIPPSPDTKDRWRSMTVVPYLEDLHGADEDEDLFDIEDDIIYTQDFTVPGQVPEEEASHNGQRRGLPKAVCMNGTEAAQLSTKSRAEGRAPNPARKACSASSKIRRLSACKQQ [R75G], the STK11 functional score was 1.56 ± 0.46.

As to MEVVDPQQLGMFTEGELMSVGMDTFIHRIDSTEVIYQPRRKRAKLIGKYLMGDLLGEGSYGKVKEVLDSETLCRFAVKILKKKKLRRIPNGEANVKKEIQLLRRLRHKNVIQLVDVLYNEEKQKMYMVMEYCVCGMQEMLDSVPEKRFPVCQAHGYFCQLIDGLEYLHSQGIVHKDIKPGNLLLTTGGTLKISDLGVAEALHPFAADDTCRTSQGSPAFQPPEIANGLDTFSGFKVDIWSAGVTLYNITTGLYPFEGDNIYKLFENIGKGSYAIPGDCGPPLSDLLKGMLEYEPAKRFSIRQIRQHSWFRKKHPPAEAPVPIPPSPDTKDRWRSMTVVPYLEDLHGADEDEDLFDIEDDIIYTQDFTVPGQVPEEEASHNGQRRGLPKAVCMNGTEAAQLSTKSRAEGRAPNPARKACSASSKIRRLSACKQQ [R75F], the STK11 functional score was found to be 1.08 ± 0.19.

MEVVDPQQLGMFTEGELMSVGMDTFIHRIDSTEVIYQPRRKRAKLIGKYLMGDLLGEGSYGKVKEVLDSETLCRLAVKILKKKKLRRIPNGEANVKKEIQLLRRLRHKNVIQLVDVLYNEEKQKMYMVMEYCVCGMQEMLDSVPEKRFPVCQAHGYFCQLIDGLEYLHSQGIVHKDIKPGNLLLTTGGTLKISDLGVAEALHPFAADDTCRTSQGSPAFQPPEIANGLDTFSGFKVDIWSAGVTLYNITTGLYPFEGDNIYKLFENIGKGSYAIPGDCGPPLSDLLKGMLEYEPAKRFSIRQIRQHSWFRKKHPPAEAPVPIPPSPDTKDRWRSMTVVPYLEDLHGADEDEDLFDIEDDIIYTQDFTVPGQVPEEEASHNGQRRGLPKAVCMNGTEAAQLSTKSRAEGRAPNPARKACSASSKIRRLSACKQQ [R75L]: the STK11 functional score was 0.841 ± 0.13.

For MEVVDPQQLGMFTEGELMSVGMDTFIHRIDSTEVIYQPRRKRAKLIGKYLMGDLLGEGSYGKVKEVLDSETLCRKAVKILKKKKLRRIPNGEANVKKEIQLLRRLRHKNVIQLVDVLYNEEKQKMYMVMEYCVCGMQEMLDSVPEKRFPVCQAHGYFCQLIDGLEYLHSQGIVHKDIKPGNLLLTTGGTLKISDLGVAEALHPFAADDTCRTSQGSPAFQPPEIANGLDTFSGFKVDIWSAGVTLYNITTGLYPFEGDNIYKLFENIGKGSYAIPGDCGPPLSDLLKGMLEYEPAKRFSIRQIRQHSWFRKKHPPAEAPVPIPPSPDTKDRWRSMTVVPYLEDLHGADEDEDLFDIEDDIIYTQDFTVPGQVPEEEASHNGQRRGLPKAVCMNGTEAAQLSTKSRAEGRAPNPARKACSASSKIRRLSACKQQ [R75K], the STK11 functional score was found to be 1.51 ± 0.44.

For the variant MEVVDPQQLGMFTEGELMSVGMDTFIHRIDSTEVIYQPRRKRAKLIGKYLMGDLLGEGSYGKVKEVLDSETLCRDAVKILKKKKLRRIPNGEANVKKEIQLLRRLRHKNVIQLVDVLYNEEKQKMYMVMEYCVCGMQEMLDSVPEKRFPVCQAHGYFCQLIDGLEYLHSQGIVHKDIKPGNLLLTTGGTLKISDLGVAEALHPFAADDTCRTSQGSPAFQPPEIANGLDTFSGFKVDIWSAGVTLYNITTGLYPFEGDNIYKLFENIGKGSYAIPGDCGPPLSDLLKGMLEYEPAKRFSIRQIRQHSWFRKKHPPAEAPVPIPPSPDTKDRWRSMTVVPYLEDLHGADEDEDLFDIEDDIIYTQDFTVPGQVPEEEASHNGQRRGLPKAVCMNGTEAAQLSTKSRAEGRAPNPARKACSASSKIRRLSACKQQ [R75D], the STK11 functional score was found to be 1.68 ± 0.28.
